Consider five molecules from patent publication US20140120095A1 (Boehringer Ingelheim, published 2014).

Assay [1] has as its target T1, human DLL4 expressed on cells (CHO-hDLL4; HEK293-hDLL4) (human, UniProt Q9NR61 27-685).
T1 construct: full length human DLL4 overexpressed on CHO cells (FMAT, FACS) or HEK293 cells (reporter assay)
In words: competition FMAT, labelled hNotch1-Fc on CHO-hDLL4 cells.

Assay [2] concerns the target T2, recombinant mouse DLL4 (C-terminally His-tagged extracellular domain, R&D Systems) (mouse, UniProt Q9JI71 27-532).
T2 construct: extracellular domain; also called rmDLL4; mDLL4
Briefly: SPR (Biacore); summary table. For orientation: Surface plasmon resonance follows binding to a sensor surface in real time, without labels.

In assay [3] the target is T3, recombinant human DLL4 (C-terminally His-tagged extracellular domain, R&D Systems) (human, UniProt Q9NR61 25-522, biotinylated in the competition ELISA).
T3 construct: also called rhDLL4; hDLL4
Briefly: SPR (Biacore); summary table.

Assay [4] has as its target T4, mouse DLL4 expressed on CHO cells (mouse, UniProt Q9JI71 27-686).
T4 construct: whole, on cells; also called mDLL4; CHO-mDLL4
Briefly: competition FMAT, labelled hNotch1-Fc on CHO-mDLL4 cells.

Assay [5] deals with T1, human DLL4 expressed on cells …. Briefly: competition FMAT CHO-hDLL4; summary table.
For assay [6], the target named is T5, cynomolgus DLL4 expressed on CHO cells (cynomolgus, UniProt Q9NR61 27-685 (human entry)).
T5 construct: also called cDLL4; CHO-cDLL4
T5 chain: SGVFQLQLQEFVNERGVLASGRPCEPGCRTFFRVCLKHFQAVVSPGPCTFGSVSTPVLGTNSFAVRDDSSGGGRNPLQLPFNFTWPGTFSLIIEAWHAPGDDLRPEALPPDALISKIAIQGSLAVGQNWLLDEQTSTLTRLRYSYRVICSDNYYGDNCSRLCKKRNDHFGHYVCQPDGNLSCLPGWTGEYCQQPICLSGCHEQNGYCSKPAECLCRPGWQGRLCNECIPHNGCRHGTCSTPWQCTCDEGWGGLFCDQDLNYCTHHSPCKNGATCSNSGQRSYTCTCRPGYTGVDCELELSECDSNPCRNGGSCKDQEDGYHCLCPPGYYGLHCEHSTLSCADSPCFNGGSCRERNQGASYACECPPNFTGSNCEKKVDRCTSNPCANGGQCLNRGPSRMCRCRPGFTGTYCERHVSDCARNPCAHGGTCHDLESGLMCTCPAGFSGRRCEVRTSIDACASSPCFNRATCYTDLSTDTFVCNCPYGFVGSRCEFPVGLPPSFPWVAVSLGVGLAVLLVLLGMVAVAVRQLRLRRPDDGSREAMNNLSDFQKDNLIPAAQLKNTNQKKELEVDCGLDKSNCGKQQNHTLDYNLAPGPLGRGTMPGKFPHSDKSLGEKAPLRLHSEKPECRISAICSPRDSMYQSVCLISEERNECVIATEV
Briefly: FACS; summary table, column taken as cDLL4.

The target in assay [7] is T1, human DLL4 expressed on cells …. In words: cell-based or functional assay.
Assay [8] shares this target. In words: FACS on CHO-hDLL4 cells.
Assay [9] deals with T3, recombinant human DLL4 (C-terminally …). Briefly: competition ELISA hDLL4/hNotch1-Fc; summary table. In general terms: In an ELISA, binding on a coated surface is turned into a signal by an enzyme label.
Assay [10] has the same target. Briefly: SPR (Biacore), rhDLL4. As to the method:
Kinetic analysis to determine the affinity of the DII4-VHH interaction is performed by Surface Plasmon Resonance (SPR) on a Biacore T100 instrument. […] Purified VHHs or Fab fragment are injected for 2 minutes at different concentrations (between 10 and 300 nM) and allowed to dissociate for 20 min at a flow rate of 45 μl/min. Between sample injections, the surfaces are regenerated with 10 mM glycine pH1.5 and 100 mM HCl. HBS-N (Hepes buffer pH7.4) is used as running buffer. If possible, data are evaluated by fitting a 1:1 interaction model (Langmuir binding) onto the binding curves. The affinity constant KD is calculated from resulting association and dissociation rate constants (kₐ) and […].

Assay [11] has as its target T1, human DLL4 expressed on cells …. In words: FACS; summary table, column taken as hDLL4. (A flow cytometer gives signals particle by particle.)
Assay [12] deals with T3, recombinant human DLL4 (C-terminally …). Briefly: competition ELISA, biotinylated hDLL4 to coated hNotch1-Fc.
The target in assay [13] is T2, recombinant mouse DLL4 (C-terminally …). In words: SPR (Biacore), rmDLL4.
The target in assay [14] is T5, cynomolgus DLL4 expressed on CHO cells. In words: FACS on CHO-cDLL4 cells.
Assay [15] has as its target T4, mouse DLL4 expressed on CHO cells. In words: competition FMAT CHO-mDLL4; summary table.
For assay [16] the target is unchanged. In words: FACS on CHO-mDLL4 cells.
For assay [17] the target is unchanged. Briefly: FACS; summary table, column taken as mDLL4.

T4 sequence (Q9JI71 27-686): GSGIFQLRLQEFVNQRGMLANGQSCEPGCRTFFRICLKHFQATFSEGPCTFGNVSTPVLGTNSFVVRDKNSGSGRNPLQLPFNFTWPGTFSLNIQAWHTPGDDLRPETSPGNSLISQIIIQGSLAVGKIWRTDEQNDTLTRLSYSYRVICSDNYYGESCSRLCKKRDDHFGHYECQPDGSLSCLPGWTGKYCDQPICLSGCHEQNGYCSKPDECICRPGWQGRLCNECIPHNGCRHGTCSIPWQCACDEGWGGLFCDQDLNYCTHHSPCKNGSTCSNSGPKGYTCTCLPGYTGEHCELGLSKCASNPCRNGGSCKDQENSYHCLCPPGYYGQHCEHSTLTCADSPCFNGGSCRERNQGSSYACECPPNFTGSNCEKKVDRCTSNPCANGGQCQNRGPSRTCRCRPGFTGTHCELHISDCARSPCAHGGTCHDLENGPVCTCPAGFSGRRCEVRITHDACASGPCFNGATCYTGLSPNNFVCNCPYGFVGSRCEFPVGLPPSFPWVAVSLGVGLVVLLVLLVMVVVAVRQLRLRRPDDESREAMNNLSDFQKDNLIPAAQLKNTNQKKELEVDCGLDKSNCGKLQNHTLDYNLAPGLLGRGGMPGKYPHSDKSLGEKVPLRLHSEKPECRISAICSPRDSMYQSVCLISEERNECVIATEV
T2 sequence (Q9JI71 27-532): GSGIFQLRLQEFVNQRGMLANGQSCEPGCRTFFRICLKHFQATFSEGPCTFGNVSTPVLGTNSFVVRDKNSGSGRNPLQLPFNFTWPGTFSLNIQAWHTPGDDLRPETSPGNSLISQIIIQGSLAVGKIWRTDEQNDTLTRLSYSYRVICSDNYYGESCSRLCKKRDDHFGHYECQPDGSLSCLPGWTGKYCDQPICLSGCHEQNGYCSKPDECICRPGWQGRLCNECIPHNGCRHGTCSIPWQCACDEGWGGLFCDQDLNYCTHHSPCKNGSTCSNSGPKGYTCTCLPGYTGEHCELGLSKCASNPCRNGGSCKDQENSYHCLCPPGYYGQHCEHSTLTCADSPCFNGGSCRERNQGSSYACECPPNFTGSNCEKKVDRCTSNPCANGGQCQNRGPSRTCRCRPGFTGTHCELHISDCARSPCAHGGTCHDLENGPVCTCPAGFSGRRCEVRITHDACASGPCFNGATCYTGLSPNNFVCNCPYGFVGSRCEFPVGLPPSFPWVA

B1: DLLBII101G08 (VHH, not shown: small tags and cut ends)
VHH: EVQLVESGGGLVQAGGSLRLSCAASGRTFSSYAMAWFRQAPGKEREFVAAIRWSGGTAYYADSVQGRFTISRDNAKNTVYLQMNSLKPEDTAVYYCANRAADTRLGPYEYDYWGQGTQVTVSS
notes: parent VHH; also called 101G08 (wt); 101G8
In the case of B1, the concentration for half-maximal inhibition (IC50) (commonly the concentration at which inhibition is half-maximal) was found to be 69.3 nM in [1]; 140 nM in assay [4]; 69.3 nM in assay [5]; 10 nM in [9]; 10 nM in [12]; 140 nM in [15]. In addition, the dissociation constant (Kd) (as a rule, the constant that tells how readily two partners part at equilibrium) came to 60 nM in assay [2], 48 nM in [3], 48 nM in assay [10] and 60 nM in assay [13]. The EC50 – broadly, the concentration giving half of the maximal effect – in assay [6] amounted to 11.2 nM; in assay [8] it was 17.5 nM; in [11] it was 17.5 nM; in [14], 11.2 nM. The “IC50, DLL4-mediated reporter assay” value in [7] is 1940 nM. Moreover, the dissociation rate constant (koff) (in general, the rate constant with which the complex falls apart) in assay [10] was determined as 0.0023 s⁻¹; in [13], 0.0056 s⁻¹. The on-rate constant (kon) (usually the rate constant with which the complex forms) was found to be 48000 M⁻¹ s⁻¹ in assay [10] and 94000 M⁻¹ s⁻¹ in assay [13].

B2: DLLBII129E11 (VHH, not shown: small tags and cut ends)
VHH: EVQLVESGGGLVQAGGSLRLSCAASGRTFSSYAMAWYRQAPGKEREYVAAIRWSGGTAYYADSVQGRFTISRDNAKNTVYLQMNSLKPEDTAVYYCANRAPDTRLRPYLYDYWGQGTQVTVSS
Regarding B2, the IC50 in [1] was 8.1 nM; in assay [4], 12.3 nM; in [5] it was 8.1 nM; in [9], 1.3 nM; in assay [12], 1.3 nM; in assay [15] it was 12.3 nM. Moreover, the equilibrium dissociation constant (Kd) in [2] was found to be 1.2 nM; in assay [3], 0.5 nM; in [10], 0.5 nM; in assay [13], 1.2 nM. Also, the concentration for a half-maximal effect (EC50) in assay [6] was 4.2 nM; in assay [16], 4.1 nM; in assay [8], 1.4 nM; in assay [17], 4.1 nM; in assay [11], 10.4 nM; in [14], 4.2 nM. Also, the “IC50, DLL4-mediated reporter assay” value in assay [7] turned out to be 98 nM. In addition, the values for the dissociation rate constant (koff) in assay [10] and in assay [13] were 9e-05 s⁻¹ and 0.00029 s⁻¹, respectively. Further, the values for the kon in assay [10] and in [13] were 190000 M⁻¹ s⁻¹ and 250000 M⁻¹ s⁻¹, respectively.

B3: DLLBII129D08 (VHH, not shown: small tags and cut ends)
VHH: EVQLVESGGGLVQAGGSLRLSCAASGRTFSSYAMAWYRQAPGKEREYVAAIRWSGGTAYYADSVQGRFTISRDNAKNTVYLQMNSLKPEDTAVYYCANRAPDTRLEPYLYDYWGQGTQVTVSS
As to B3, the IC50 amounted to 7.8 nM in assay [1]; 11 nM in assay [4]; 7.8 nM in assay [5]; 1.2 nM in assay [9]; 1.2 nM in [12]; 11 nM in assay [15]. Moreover, the Kd in [2] was 0.8 nM; in [3], 0.4 nM; in assay [10], 0.4 nM; in [13] it was 0.8 nM. Also, the 50% effective concentration (EC50) in [6] was 3.8 nM; in assay [16], 3.7 nM; in assay [8], 9.6 nM; in assay [17], 3.7 nM; in [11] it was 9.6 nM; in assay [14], 3.8 nM. Further, the “IC50, DLL4-mediated reporter assay” value in assay [7] was determined as 77 nM. Also, the values for the koff in assay [10] and in assay [13] were 6.4e-05 s⁻¹ and 0.0002 s⁻¹, respectively. Besides, the kon in [10] came to 180000 M⁻¹ s⁻¹; in assay [13], 270000 M⁻¹ s⁻¹.

B4: DLLBII129B05 (VHH, not shown: small tags and cut ends)
VHH: EVQLVESGGGLVQAGGSLRLSCAASGRTFSSYAMAWYRQAPGKEREYVAAIRWSGGTAYYADSVQGRFTISRDNAKNTVYLQMNSLKPEDTAVYYCANRAPDTRLAPYEYDHWGQGTQVTVSS
On to B4, for which the IC50 was 7.4 nM in [1]; 14.4 nM in assay [4]; 7.4 nM in assay [5]; 0.9 nM in [9]; 0.9 nM in assay [12]; 14.4 nM in assay [15]. Also, the dissociation constant (Kd) was determined as 1.1 nM in assay [2], 0.3 nM in assay [3], 0.3 nM in assay [10] and 1.1 nM in assay [13]. Also, the EC50 in [6] stood at 3.9 nM; in [16] it was 3.9 nM; in assay [8] it was 9.7 nM; in [17] it was 3.9 nM; in [11], 9.7 nM; in assay [14] it was 3.9 nM. Moreover, the “IC50, DLL4-mediated reporter assay” value in assay [7] turned out to be 60 nM. For the same molecule, the koff in [10] was 7.9e-05 s⁻¹; in assay [13], 0.00031 s⁻¹. Besides, the association rate constant (kon) in assay [10] was 230000 M⁻¹ s⁻¹; in [13] it was 270000 M⁻¹ s⁻¹.

B5: DLLBII015 (VHH, not shown: small tags and cut ends)
VHH: EVQLVESGGGLVQPGGSLRLSCAASGFTIGSYDMSWVRRSPGKGPEWVSAINSGGGSTYYADYVKGRFTISRDNAKNTLYLQMNSLKPEDTAVYYCAADRYIWARQGEYWGAYAYDYWGQGTQVTVSS
In the case of B5, the half-maximal inhibitory concentration (IC50) in [1] worked out at 5.7 nM; in assay [4], 21.2 nM; in assay [5], 5.7 nM; in [9] it was 0.9 nM; in assay [12], 0.9 nM; in assay [15], 21.2 nM. Moreover, the Kd was 4.3 nM in [2], 1 nM in [3], 1 nM in assay [10] and 4.3 nM in assay [13]. Besides, the half-maximal effective concentration (EC50) in assay [6] came to 5.1 nM; in assay [16], 7 nM; in [8], 14.8 nM; in assay [17] it was 7 nM; in assay [11], 14.8 nM; in assay [14] it was 5.1 nM. For the same molecule, the “IC50, DLL4-mediated reporter assay” value in assay [7] stood at 18 nM. Moreover, the off-rate (koff) is 0.00047 s⁻¹ in assay [10] and 0.0015 s⁻¹ in [13]. For the same molecule, the on-rate (kon) came to 450000 M⁻¹ s⁻¹ in assay [10] and 350000 M⁻¹ s⁻¹ in assay [13].
